US20190023809A1, “ANTI-NICOTINAMIDE PHOSPHORIBOSYLTRANSFERASE ANTIBODY GENES AND METHODS OF USE THEREOF” (The Children's Mercy Hospital, priority 2015, published 2019)

B1: Ab1: anti-NAMPT single-chain variable fragment antibody clone, 247 amino acids, SEQ ID NO 1/2, in pCAGGS expression vector (protein, listed as Homo sapiens)
scFv: MEVQLLESGGGLVQPGGSLRLSCAASGFTFSSYAMSWVRQAPGKGLEWVSVINVPGNRTSYADSVKGRFTISRDNSKNTLYLQMNSLRAEDTAVYYCAKKTRRFDYWGQGTLVTVSSGGGGSGGGGSGGGGSTDIQMTQSPSSLSASVGDRVTITCRASQSISSYLNWYQQKPGKAPKLLIYGASVLQSGVPSRFSGSGSGTDFTLTISSLQPEDFATYYCQQRVRSPATFGQGTKVEIKRHHHHHH
modifications: (32)..(36) CDR1; (51)..(70) CDR2 scFv1; (99)..(105) CDR3 scFv1; (157)..(167) CDR4; (183)..(189) CDR5 scFv1; (224)..(230) CDR6 scFv1; (242)..(247) Histidine Tag
B2: Ab2: anti-NAMPT single-chain variable fragment antibody clone, 249 amino acids, SEQ ID NO 3/4, in pCAGGS expression vector (protein, listed as Homo sapiens)
scFv: MEVQLLESGGGLVQPGGSLRLSCAASGFAFSSYAMSWVRQAPGKGLEWVSNISGRGAKTTYADSVKGRFTISRDNSKNTLYLQMNSLRAEDTAVYYCAKTYLVFDYWGQGTLVTVSSGGGGSGGGGSGGGGSTDIQMTQSPSSLSASVGDRVTITCRASQSISSYLNWYQQKPGKAPKLLIYRASSLQSGVPSRFSGSGSGTDFTLTISSLQPEDFATYYCQQISATPTTFGQGTKVEIKRAAHHHHHH
modifications: (32)..(36) CDR1; (41)..(60) CDR2 scFv2; (90)..(96) CDR3 scFv3; (108)..(122) 15-mer linker sequence; (147)..(157) CDR4; (173)..(180) CDR5 scFv2; (214)..(220) CDR6 scFv2; (234)..(239) Histidine Tag

Experiments:
[1] = system: SP-B; assay: SP-B expression in H441 cells pretreated with FK866, without or with TNF-α (western blot); format: cell-based, human
Protocol: FIG. 21 illustrates NAMPT inhibited SP-B expression via both its nonenzymatic and enzymatic activity. (A) H441 cells were transfected with either pCAGGS, pCAGGS-hNAMPT or pCAGGS-H247E. Cell lysate of NAMPT (10 μg), SP-B (30 μg) and GAPDH (10 μg) proteins were detected by western blot. Protein bands were quantified by densitometry using image J, and NAMPT levels (B) and SP-B levels (C) were normalized to GAPDH levels. Values are means±SD of 3 independent experiments. *p<0.05 vs. pCAGGS cells; #p<0.05 vs pCAGGS-hNAMPT cells. (D) H441 cells were pretreated with different doses of FK866 for 6 h before treatment without or with TNF-α (25 ng/ml) for 24 hours. Cell lysate of NAMPT (10 μg), SP-B (30 μg) and GAPDH (10 μg) proteins were detected by western blot. Protein bands were quantified by densitometry using image J, and NAMPT levels (E) and SP-B levels (F) were normalized to GAPDH levels. Values are means±SD of 3 independent experiments. *p<0.05 vs cells without FK866 or rhTNF-α treatment. #p<0.05 vs cells pretreated with FK866 but without rhTNF-α treatment;
This example determined that NAMPT inhibits SP-B expression mainly via its nonenzymatic activity and partly via its enzymatic activity. […]

[2] = system: CIA; conditions: CIA mice; cited from earlier work
[3] = cited from earlier work
[4] = system: 3T3-L1 cells; assay: MTS / CellTiter 96 AQueous One cell proliferation assay in transfected 3T3-L1 cells; format: cell-based, mouse; conditions: for decreased proliferation as compared to the pCAGGS control population: fibroblasts, FIG. 1C; for proliferation of mouse 3T3: transfected cells, preliminary result
Protocol: FIG. 1C is a graphic representation of the results of assay of cell proliferation of 3T3-L1 cells transfected with scFV1 and scFv2 or pCAGGS control. After 72 h, cell proliferation was assayed by CellTiter 96® AQueous One Solution Cell Proliferation Assay (Promega, cat #G3582). Values are means±SD, N=12, * p≤0.001;
(§1) In one embodiment of the present disclosure, as best shown in FIG. 1A, the cDNA for each single-chain variable fragment (scFv) antibody was cloned, including a histidine tag on the 3′ end, into the pCAGGS expression vector. The VH and VL fragments for each scFv are separated by a (G4S)3 linker and encode proteins of 247 and 249 amino acids, respectively for NAMPT-scFv1 (antibody 1 or Ab1) and scFv2 (antibody 2 or Ab2) (FIG. 1B). To test the anti-NAMPT ability of each construct, MTS assays were performed in transfected 3T3-L1 (ATCC CL-173™) and RAW 264.7 (ATCC® TIB-71™) cells.
We expressed and purified recombinant mouse NAMPT protein and obtained two human against mouse NAMPT antibody gene clones, termed NAMPT-scFv1 (Ab1) and -scFv2 (Ab2), by screening a HuScL-2™ Phage Display Naïve Human scFv Library (www.creative-biolabs.com/). We cloned the cDNAs for each scFv, including a histidine-tag on the 3′ end, into the pCAGGS expression vector. The VH and VL fragments for each scFv are separated by a (G4S)3 linker and encode proteins of 247 and 249 amino acids, respectively for NAMPT-scFv1 and -scFv2. To test the anti-NAMPT ability of each construct, we performed MTS assays in transfected 3T3-L1 (ATCC® CL-173™) and RAW 264.7 (ATCC® TIB-71™) cells. […] To increase the specificity of these constructs we generate a hetero-dimer and a hetero-tetramer using established procedures. The hetero-dimer [scFv1-scFv2], also called a di-body, is separated by a GGSSRSSSSGGGGSGGGG linker. The hetero-tetramer, also called a tetra-body, consists of two dimers [scFv1-scFv2]2 joined by the HIV1 P21 capsid protein linker, GATPQDLNTML. The P21 linker is an epitope for the murine monoclonal CB4-1 antibody. […] Thus, we utilize the CB4-1 antibody and nickel-columns (His-Tag) to manipulate and purify our recombinant scFv antibodies. We enhance the specificity and tertiary structures of the di-body and tetra-body by modifying the type and length of the linker sequences. Their antisense clone of NAMPT-scFv1 and -scFv2 is used as controls. Since similar effects in in vitro assay were observed, only NAMPT-scFv1 and its antisense clone are used to prepare the constructs under the control of either the human MRP8 promoter or mouse MPO promoter for tissue specific expression in neutrophils or neutrophils and monocytes, respectively.

[5] = system: macrophage cell lines; assay: MTS proliferation assay in transfected macrophage cell lines (RAW 264.7); format: cell-based, mouse; conditions: data not shown
Excerpt: as §1
We expressed and purified recombinant mouse NAMPT protein and obtained two human against mouse NAMPT antibody gene clones, termed NAMPT-scFv1 (Ab1) and -scFv2 (Ab2), by screening a HuScL-2™ Phage Display Naïve Human scFv Library (www.creative-biolabs.com/). We cloned the cDNAs for each scFv, including a histidine-tag on the 3′ end, into the pCAGGS expression vector. The VH and VL fragments for each scFv are separated by a (G4S)3 linker and encode proteins of 247 and 249 amino acids, respectively for NAMPT-scFv1 and -scFv2. To test the anti-NAMPT ability of each construct, we performed MTS assays in transfected 3T3-L1 (ATCC® CL-173™) and RAW 264.7 (ATCC® TIB-71™) cells. […] To increase the specificity of these constructs we generate a hetero-dimer and a hetero-tetramer using established procedures. […]

[6] = system: human a549 cell; assay: Proliferation of human a549 cell (data not shown); format: cell-based
[7] = system: cell NAD synthesis; assay: NAD synthesis by transfected 3T3-L1 cells (Amplite Fluorimetric NAD/NADH Ratio Assay Kit); format: cell-based, mouse
Protocol: FIG. 1D is a graphic representation of the results of assay of NAD synthesis by 3T3-L1 cells transfected with scFv1 or pCAGGS control. After 72 h NAD synthesis was measured by Amplite™ Fluorimetric NAD/NADH Ratio Assay Kit (AAT Bioquest®, Inc. prod. number 15263). Values are means±SD, N=4, p≤0.005. Ab1, antibody 1; Ab2, antibody 2;
as §1

[8] = Cell culture experiments: cell death; format: cell-based
Excerpt: as §1

| Molecule | rescue of TNF-α induced inhibition of SP-B ([1]; FK866 6 h then TNF-α 25 ng/ml 24 hours) | SP-B expression ([1]; FK866 pretreatment 6 h) | severity and progression of arthritis [2] | side effect in humans [3] | decreased proliferation as compared to the pCAGGS control population [4] | proliferation of mouse 3T3 [4] | proliferation of macrophage cell lines [5] | proliferation of human a549 cell [6] | NAD synthesis, FIG. 1D values (Avg±SD) ([7]; 3T3-L1 cells transfected, after 72 h, pCAGGS control, N=4) | cell NAD synthesis ([7]; transfected cells) | cell death [8] | cell proliferation, FIG. 1C values (Avg±SD) ([4]; 3T3-L1 cells transfected, after 72 h, pCAGGS control, N=12) |
| --- | --- | --- | --- | --- | --- | --- | --- | --- | --- | --- | --- | --- |
| O=C(/C=C/c1cccnc1)NCCCCC1CCN(C(=O)c2ccccc2)CC1 [FK866] | did not significantly rescue | increased | effectively reduce | thrombocytopenia | – | – | – | – | – | – | – | – |
| B1 | – | – | – | – | about 50% | inhibit proliferation | inhibit proliferation | inhibited proliferation | 68.3%+10.4 | inhibited cell NAD synthesis | induce cell death | – |
| B2 | – | – | – | – | about 50% | inhibit proliferation | inhibit proliferation | inhibited proliferation | – | – | induce cell death | 49.8%+4.6 |
